# Measurements from patent US9234036B2, “Modulation of activity of proneurotrophins” (H. Lundbeck A/S, priority 2006, dated 2016).
# Entries after “also recorded” stand apart in the source; their conditions may differ. Where no end group is shown, it is not given here.
# T1: proNGF binding to immobilized Sortilin (Homo sapiens, UniProt Q99523)
# T1 construct: 51 fmol/mm^2 purified Sortilin extracellular domain; made in house; host or cells: Sortilin: stably transfected CHO cells; proNGF: E. coli
# T1 sequence (Q99523 78-755 limits assumed): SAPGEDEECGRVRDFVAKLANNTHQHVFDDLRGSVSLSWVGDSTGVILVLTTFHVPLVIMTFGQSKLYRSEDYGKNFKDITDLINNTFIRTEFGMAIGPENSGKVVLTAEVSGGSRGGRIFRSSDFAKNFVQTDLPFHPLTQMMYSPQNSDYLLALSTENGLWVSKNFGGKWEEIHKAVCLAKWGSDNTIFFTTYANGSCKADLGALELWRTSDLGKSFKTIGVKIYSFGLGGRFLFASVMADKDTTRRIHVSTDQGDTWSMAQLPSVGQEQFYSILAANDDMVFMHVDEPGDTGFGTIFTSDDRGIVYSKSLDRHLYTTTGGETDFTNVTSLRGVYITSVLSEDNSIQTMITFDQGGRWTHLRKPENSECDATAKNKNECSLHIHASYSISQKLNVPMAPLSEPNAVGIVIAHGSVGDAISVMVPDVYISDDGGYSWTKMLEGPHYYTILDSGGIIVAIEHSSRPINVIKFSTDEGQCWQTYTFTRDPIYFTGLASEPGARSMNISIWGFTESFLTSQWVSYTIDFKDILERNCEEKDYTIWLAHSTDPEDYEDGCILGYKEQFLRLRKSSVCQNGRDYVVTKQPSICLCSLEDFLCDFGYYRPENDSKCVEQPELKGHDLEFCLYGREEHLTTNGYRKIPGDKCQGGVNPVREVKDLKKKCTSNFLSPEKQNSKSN
# T2: GST-pro-dom-NGF (Homo sapiens, UniProt P01138, A35V)
# T2 construct: previously described GST-NGF-pro-domain fusion protein (Nykjaer et al., Nature 2004)
# T2 sequence (P01138 19-121 A35V): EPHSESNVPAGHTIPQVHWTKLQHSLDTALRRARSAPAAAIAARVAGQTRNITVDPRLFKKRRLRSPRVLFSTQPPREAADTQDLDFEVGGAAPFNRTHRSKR
# B1: RAP: receptor-associated protein, SEQ ID NO 12 (protein, listed as Homo Sapiens)
# chain: MAPRRVRSFLRGLPALLLLLLFLGPWPAASHGGKYSREKNQPKPSPKRESGEEFRMEKLNQLWEKAQRLHLPPVRLAELHADLKIQERDELAWKKLKLDGLDEDGEKEARLIRNLNVILAKYGLDGKKDARQVTSNSLSGTQEDGLDDPRLEKLWHKAKTSGKFSGEELDKLWREFLHHKEKVHEYNVLLETLSRTEEIHENVISPSDLSDIKGSVLHSRHTELKEKLRSINQGLDRLRRVSHQGYSTEAEFEEPRVIDLWDLAQSANLTDKELEAFREELKHFEAKIEKHNHYQKQLEIAHEKLRHAESVGDGERVSRSREKHALLEGRTKELGYTVKKHLQDLSGRISRARHNEL
# Target: T1, proNGF binding to immobilized Sortilin
# Experiment: Inhibition of proNGF binding to immobilized Sortilin (Biacore)
# Details: 5 μM inhibitor prebound, then coinjection; 51 fmol/mm^2 Sortilin (FIG. 6)
row,Molecule,inhibition of binding of 200 nM proNGF to immobilized Sortilin [%]
1,Sortilin propeptide: propeptide of the Sortilin receptor (QDRLDAPPPPAAPLPRWSGPIGVSWGLRAAAAGGAFPRGGRWRR),~65

# Same assay, conditions: 10 μM inhibitor prebound, then coinjection; 51 fmol/mm^2 Sortilin (FIG. 6)
row,Molecule,inhibition of binding of 200 nM proNGF to immobilized Sortilin [%]
1,B1,~65

# Target: T2, GST-pro-dom-NGF
# Experiment: SPR binding of GST-pro-dom-NGF to immobilized sortilin site-directed mutants
# Details: 50 nM GST-pro-dom-NGF, FIG. 22
# Protocol: Site-directed mutagenesis was performed for all important residues within the peptide sequence as identified by the substitution analysis in the SPOT method, using the pCepPU expression vector for sortilin as template. The thereby generated mutant constructs were used together with HEK293 cells to produce single residue mutants of the his-tagged sortilin luminal domain, to obtain the proteins R163A, F165A, R166A, F170A, K172A, and F174A numbered according to pro-Sortilin as specified in the sequence overview. As a control protein, the mutant R160A located N-terminally to the recognition sequence, was produced in order to have a protein with unaltered affinity for the NGF-prodomain.
# After purification by standard Ni^2+-NTA chromatography, each sortilin mutant was immobilized to a similar surface density on Biacore CM5 chips. Binding was tested using concentration series of the previously described GST-NGF-pro-domain fusion protein (Nykjaer et al., Nature 2004), which is able to render a higher response using the SPR system at low concentration. Thus concentration series of 10, 20, 30, 40, and 50 nM GST-prodomain of NGF was applied to each chip surface, and data was fitted to a 1:1 binding model using the standard BIAevaluation software.
# This model is further supported by the previous data in the substitution analysis, where a stronger effect upon mutation was observed when using peptides containing only one of the binding motives, as compared to mutants spanning both motives. Accordingly, it was decided to “remove” an entire motif before substitution within the second motif and to be able to observe how that would influence binding of the ligand. A sortilin variant was produced containing quadruple substitutions (R163A, F165A, R166A, and […] F170A) in a similar procedure using HEK293 cells as applied for single residue mutants.
# To determine ligand binding capacity, quatro protein was coupled in parallel to the wild-type sortilin on a new Biacore chip, and binding of GST-pro-NGF was measured in a manner similar to the analysis of single residue mutants (FIG. 21).
row,Molecule,binding of GST-pro-dom-NGF compared with sortilin wt
1,"quatro: sortilin variant with quadruple substitutions R163A, F165A, R166A, F170A; SEQ ID NO 57 (RGGAIAASSDAAKNF; not fully specified)",severely affected; also recorded: strongly reduced affinity

# Same assay, conditions: GST-pro-dom-NGF at 10-50 nM; 1:1 binding model
Molecule,Kd [nM],ka,kd,KD
F165A: single residue mutant of his-tagged sortilin luminal domain; SEQ ID NO 52 (RGGRIARSSDFAKNF; not fully specified),3.86,1.10 × 10^5,4.22 × 10^−4,
F170A: single residue mutant of his-tagged sortilin luminal domain; SEQ ID NO 54 (RGGRIFRSSDAAKNF; not fully specified),5.59,1.30 × 10^5,5.91 × 10^−4,
F174A: single residue mutant of his-tagged sortilin luminal domain; SEQ ID NO 56 (RGGRIFRSSDFAKNA; not fully specified),4.27,2.35 × 10^5,1.03 × 10^−3,
K172A: single residue mutant of his-tagged sortilin luminal domain; SEQ ID NO 55 (RGGRIFRSSDFAANF; not fully specified),3.91,1.01 × 10^5,3.46 × 10^−4,
"R160A: single residue mutant of his-tagged sortilin luminal domain, control; SEQ ID NO 50 (AGGRIFRSSDFAKNF; not fully specified)",1.89,1.47 × 10^5,2.27 × 10^−4,
R163A: single residue mutant of his-tagged sortilin luminal domain; SEQ ID NO 51 (RGGAIFRSSDFAKNF; not fully specified),2.7,1.85 × 10^5,4.21 × 10^−4,
R166A: single residue mutant of his-tagged sortilin luminal domain; SEQ ID NO 53 (RGGRIFASSDFAKNF; not fully specified),4.38,6.48 × 10^4,2.85 × 10^−4,
"quatro: sortilin variant with quadruple substitutions R163A, F165A, R166A, F170A; SEQ ID NO 57 (RGGAIAASSDAAKNF; not fully specified)",,,,no binding
